Experiments:
[1] = biological target: cdPadR1 (PadR family transcription regulator, product of CDR20291_0991, Clostridium difficile R20291) (Clostridium difficile R20291); assay: SEC
[2] = biological target: cdPadR1 (PadR family transcription regulator, product of CDR20291_0991, Clostridium difficile R20291) (Clostridium difficile R20291); assay: SEC-MALS
[3] = biological target: cdPadR1^W94A (Clostridium difficile R20291); assay: SEC-MALS

Substance | stoichiometry N [1] | stoichiometry N [2] | stoichiometry N [3]
cdPadR1 (PadR family transcription regulator, product of CDR20291_0991, Clostridium difficile R20291) (from UniProt A0A9R0CDW8 1-109) (natural protein) | 2 | 2 | 
cdPadR1^W94A (from UniProt A0A9R0CDW8 1-109) (natural protein) |  |  | 2

Source: publication PMC5050560
